Measured values published in publication PMC12002136.

Biological target: exportin 1 (XPO1, CRM1) (UniProt O14980)
Assay: anti-HA
Settings: reference: wild type; sites S182

- binding against the reference: stronger
Substance: YTHDF1 (from UniProt Q9BYJ9) S182A
